# Measured values from patent US5457182.
# Tests used:
# [1] = biological target: bovine brain calcineurin (bovine) (UniProt P48452)
# [2] = biological target: N-succinyl-Ala-Leu-Pro-Phe-p-nitroanilide
"IC50 for inhibition of CaN phosphatase activity (with FK-506, CaM, Ca2+, Mg2+) [1] [nM]",PPIase activity [2] [fold],Substance
16,–,"FKBP12.6 (bovine, purified from calf brain cytosol)"
–,25,cyclophilin (enzyme)
9.9,–,recombinant human FKBP12 (from UniProt P62942)
